Reference: patent US20240209078A1 (Amgen, published 2024)
Read-outs that look alike come from different tables or passages of the source.

What was measured:
[1] = biological target: T1, human CDH3 (Cadherin-3, P-Cadherin) (human, UniProt P22223 108-829); assay: cell-based or functional assay
[2] = biological target: T1, human CDH3 (Cadherin-3, P-Cadherin); assay: cell-based or functional assay; remark: listed apart in the source
mouse MSLN protein = biological target: T2, mouse MSLN protein (mouse, UniProt Q61468 298-600); assay: flow cytometry on transfected CHO cells
T2 construct: whole, on cells; also called full-length mouse MSLN
T2 sequence (looked up): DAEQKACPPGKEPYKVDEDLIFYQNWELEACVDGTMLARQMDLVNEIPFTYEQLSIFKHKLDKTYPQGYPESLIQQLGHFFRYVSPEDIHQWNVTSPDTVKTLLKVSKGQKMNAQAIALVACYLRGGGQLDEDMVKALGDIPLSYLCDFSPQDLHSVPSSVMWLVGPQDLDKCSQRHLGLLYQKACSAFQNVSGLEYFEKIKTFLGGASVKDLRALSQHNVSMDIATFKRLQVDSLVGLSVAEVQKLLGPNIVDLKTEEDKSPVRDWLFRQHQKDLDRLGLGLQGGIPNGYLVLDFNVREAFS

[3] = biological target: T1, human CDH3 (Cadherin-3, P-Cadherin); assay: cell-based or functional assay; remark: listed apart in the source
[4] = biological target: T1, human CDH3 (Cadherin-3, P-Cadherin); assay: cell-based or functional assay; remark: listed apart in the source
[5] = biological target: T1, human CDH3 (Cadherin-3, P-Cadherin); assay: cell-based or functional assay; remark: listed apart in the source
[6] = biological target: T1, human CDH3 (Cadherin-3, P-Cadherin); assay: cell-based or functional assay; remark: listed apart in the source
[7] = biological target: T1, human CDH3 (Cadherin-3, P-Cadherin); assay: cell-based or functional assay; remark: listed apart in the source

Binder	cytotoxicity EC50, HCT 116 KO MSLN cells [1] [nM]	cytotoxicity EC50, GSU KO MSLN cells [2] [nM]	binding result (mouse MSLN protein)	cytotoxicity EC50, HCT 116 KO MSLN cells [3] [nM]	cytotoxicity EC50, HCT 116 KO MSLN cells [4] [nM]	cytotoxicity EC50, GSU KO MSLN cells [5] [nM]	cytotoxicity EC50, E:T ratio 1:1, GSU KO MSLN cells [6] [nM]	cytotoxicity EC50, E:T ratio 1:2, GSU KO MSLN cells [6] [nM]	cytotoxicity EC50, E:T ratio 10:1, GSU KO MSLN cells [6] [nM]	cytotoxicity EC50, GSU KO MSLN cells [7] [nM]
CH3 15-E11 VAG CC×I2L×G4×scFc×MS 15-B12 CC×I2L clipopt ID (SEQ ID NO 434) (bispecific antibody, single-chain multitargeting CDH3 x CD3 - scFc - MSLN x CD3 engager; also called K3T) QVQLVQSGAEVKKPGASVKVSCKASGYTFTNYWMNWVRQAPGQCLEWMGNIAYGVAGTNYNQKFQGRVTMTVDTSSSTAYMELSRLRSDDTAVYYCATRYFYVMDYWGQGTLVTVSSGGGGQGGGGQGGGGQDIQMTQSPSSLSASVGDRVTITCRASQDISNYLNWYQQKPGKVPKLLIYYTSRLHSGVPSRFSGSGSGTDFTLTISSLQPEDVATYYCVQYAQFPLTFGCGTKVEIKSGGGGQEVQLVESGGGLVQPGGSLKLSCAASGFTFNKYAMNWVRQAPGKGMEWVARIRSKYNNYATYYADAVKDRFTISRDDSKNTLYLQMNNLKTEDTAVYYCVRAGNFGSSYISYFAYWGQGTLVTVSSGGGGQGGGGQGGGGQQTVVTQEPSLTVSPGGTVTITCGSSTGAVTSGNYPNWIQKKPGQAPRGLIGGTKFLAPGTPARFSGSLEGGKAALTLSGVQPEDEAEYYCVLYYSNRWVFGSGTKLTVLGGGGCPPCPAPELLGGPSVFLFPPKPKDTLMISRTPEVTCVVVDVSHEEPEVKFNWYVDGVEVHNAKTKPCEEQYGSTYRCVSVLTVLHQDWLNGKEYKCKVSNKALPAPIEKTISKAKGQPREPQVYTLPPSREEMTKNQVSLTCLVKGFYPSDIAVEWESNGQPENNYKTTPPVLDSDGSFFLYSKLTVDKSRWQQGNVFSCSVMHEALHNHYTQKSLSLSPGKGGGGQGGGGQGGGGQGGGGQGGGGQGGGGQCPPCPAPELLGGPSVFLFPPKPKDTLMISRTPEVTCVVVDVSHEEPEVKFNWYVDGVEVHNAKTKPCEEQYGSTYRCVSVLTVLHQDWLNGKEYKCKVSNKALPAPIEKTISKAKGQPREPQVYTLPPSREEMTKNQVSLTCLVKGFYPSDIAVEWESNGQPENNYKTTPPVLDSDGSFFLYSKLTVDKSRWQQGNVFSCSVMHEALHNHYTQKSLSLSPGKGGGGQVQLQESGPGLVKPSETLSLTCTVSGGSISSSSYFWGWIRQPPGKCLEWIGNIYYSGSSNYNPSLKSRVTISVDTSKNQFSLKLSSVTAADTAVYYCARLPRGDRDAFDIWGQGTMVTVSSGGGGQGGGGQGGGGQDIVMTQSPSSLSASVGDRVTITCRASQGISNYLAWYQQKPGKVPKLLIYAASTLQSGVPSRFSGSGSGTDFTLTISSLQPEDFATYYCQQSYSTPFTFGCGTKVEIKSGGGGQEVQLVESGGGLVQPGGSLKLSCAASGFTFNKYAMNWVRQAPGKGMEWVARIRSKYNNYATYYADAVKDRFTISRDDSKNTLYLQMNNLKTEDTAVYYCVRAGNFGSSYISYFAYWGQGTLVTVSSGGGGQGGGGQGGGGQQTVVTQEPSLTVSPGGTVTITCGSSTGAVTSGNYPNWIQKKPGQAPRGLIGGTKFLAPGTPARFSGSLEGGKAALTLSGVQPEDEAEYYCVLYYSNRWVFGSGTKLTVL	0.0015	0.245	no binding (tested: 5 µg/mL)							
CH3 15-E11 CC×I2L×G4×scFc×G4×MS 15-B12 CC×I2L_GQ (SEQ ID NO 251) (bispecific antibody, single-chain multitargeting engager; also called F5Q) QVQLVQSGAEVKKPGASVKVSCKASGYTFTNYWMNWVRQAPGQCLEWMGNIAYGVKGTNYNQKFQGRVTMTVDTSSSTAYMELSRLRSDDTAVYYCATRYFYVMDYWGQGTLVTVSSGGGGQGGGGQGGGGQDIQMTQSPSSLSASVGDRVTITCRASQDISNYLNWYQQKPGKVPKLLIYYTSRLHSGVPSRFSGSGSGTDFTLTISSLQPEDVATYYCVQYAQFPLTFGCGTKVEIKSGGGGQEVQLVESGGGLVQPGGSLKLSCAASGFTFNKYAMNWVRQAPGKGMEWVARIRSKYNNYATYYADAVKDRFTISRDDSKNTLYLQMNNLKTEDTAVYYCVRAGNFGSSYISYFAYWGQGTLVTVSSGGGGQGGGGQGGGGQQTVVTQEPSLTVSPGGTVTITCGSSTGAVTSGNYPNWIQKKPGQAPRGLIGGTKFLAPGTPARFSGSLEGGKAALTLSGVQPEDEAEYYCVLYYSNRWVFGSGTKLTVLGGGGCPPCPAPELLGGPSVFLFPPKPKDTLMISRTPEVTCVVVDVSHEEPEVKFNWYVDGVEVHNAKTKPCEEQYGSTYRCVSVLTVLHQDWLNGKEYKCKVSNKALPAPIEKTISKAKGQPREPQVYTLPPSREEMTKNQVSLTCLVKGFYPSDIAVEWESNGQPENNYKTTPPVLDSDGSFFLYSKLTVDKSRWQQGNVFSCSVMHEALHNHYTQKSLSLSPGKGGGGQGGGGQGGGGQGGGGQGGGGQGGGGQCPPCPAPELLGGPSVFLFPPKPKDTLMISRTPEVTCVVVDVSHEEPEVKFNWYVDGVEVHNAKTKPCEEQYGSTYRCVSVLTVLHQDWLNGKEYKCKVSNKALPAPIEKTISKAKGQPREPQVYTLPPSREEMTKNQVSLTCLVKGFYPSDIAVEWESNGQPENNYKTTPPVLDSDGSFFLYSKLTVDKSRWQQGNVFSCSVMHEALHNHYTQKSLSLSPGKGGGGQVQLQESGPGLVKPSETLSLTCTVSGGSISSSSYFWGWIRQPPGKCLEWIGNIYYSGSSNYNPSLKSRVTISVDTSKNQFSLKLSSVTAADTAVYYCARLPRGDRDAFDIWGQGTMVTVSSGGGGQGGGGQGGGGQDIVMTQSPSSLSASVGDRVTITCRASQGISNYLAWYQQKPGKVPKLLIYAASTLQSGVPSRFSGSGSGTDFTLTISSLQPEDFATYYCQQSYSTPFTFGCGTKVEIKSGGGGQEVQLVESGGGLVQPGGSLKLSCAASGFTFNKYAMNWVRQAPGKGMEWVARIRSKYNNYATYYADAVKDRFTISRDDSKNTLYLQMNNLKTEDTAVYYCVRAGNFGSSYISYFAYWGQGTLVTVSSGGGGQGGGGQGGGGQQTVVTQEPSLTVSPGGTVTITCGSSTGAVTSGNYPNWIQKKPGQAPRGLIGGTKFLAPGTPARFSGSLEGGKAALTLSGVQPEDEAEYYCVLYYSNRWVFGSGTKLTVL			no binding (tested: 5 µg/mL)	0.0087	0.0087	3.24	0.322	0.341	0.098	3.24
